± gives the uncertainty stated by the source.
Experiment: self-splicing fitness, log relative to wild type (ln ratio); higher = more splicing; Tetrahymena group I intron in knt gene, E. coli kanamycin selection, DiMSum; sequences stand for … in CUCUCU…GGAGGGAAAAGUUAUCAGGCAUGCACCUGGUAGCUAGUCUUUAAACCAAUAGAUUGCAUCGGUUUAAAAGGCAAGACCGUCAAAUUGCGGGAAAGGGGUCAACAGCCGUUCAGUACCAAGUCUCAGGGGAAACUUUGAGAUGGCCUUGCAAAGGGUAUGGUAAUAAGCUGACGGACAUGGUCCUAACCACGCAGCCAAGUCCUAAGUCAACAGAUCUUCUGUUGAUAUGGAUGCAGUUCACAGACUAAAUGUCGGUCGGGGAAGAUGUAUUCUUCUCAUAAGAUAUAGUCGGACCUCUCCUUAAUGGGAGCUAGCGGAUGAAGUGAUGCAACACUGGAGCCGCUGGGAACUAAUUUGUAUGCGAAAGUAUAUUGAUUAGUUUUGGAGUACUCGUGGUCG
Method in brief: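 The eight P1ex-region nucleotides of an intron in the knt kanamycin-resistance gene on pET-22b(+) were all randomised and the library put into E. coli BL21(DE3). Six replicate transformations were grown overnight at 37°C or 30°C on LB agar with or without 25 μg/mL kanamycin, together with 100 μg/mL carbenicillin, 50 μM IPTG and 0.2% rhamnose. Colonies were pooled and amplicon-sequenced on an Illumina HiSeq 2500. Fitness from DiMSum is the error-weighted combination of wild-type-normalised replicate fold changes, kanamycin over none.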

Sequence	self-splicing fitness (ln) (30 °C)	self-splicing fitness (ln) (37 °C)
UUAUAGCAAUAUUACGGGGU	-2.93 ± 0.28	-2.15 ± 0.31
UUAUAGCAAUAUUACGUCGA	-0.277 ± 0.13	-0.308 ± 0.15
UUAUAGCAAUAUUACGUCGG	-1.58 ± 0.27	-0.309 ± 0.24
UUAUAGCAAUAUUACGUGGA	-2.5 ± 0.41	-1.23 ± 0.22
UUAUAGCAAUAUUACGUGUU	-4.16 ± 0.33	-3.11 ± 0.33
UUAUAGCAAUAUUACGUUCC	–	-2.09 ± 0.48
UUCAAGCAAUAUUACGACCG	-1.29 ± 0.14	0.147 ± 0.18
UUCAAGCAAUAUUACGACUG	-2.38 ± 0.15	-1.33 ± 0.12
UUCAAGCAAUAUUACGAGCA	-1.01 ± 0.1	-0.0614 ± 0.12
UUCAAGCAAUAUUACGAGCC	-2.64 ± 0.32	–
UUCAAGCAAUAUUACGAUAG	-1.81 ± 0.14	-0.986 ± 0.17
UUCAAGCAAUAUUACGAUUA	-0.129 ± 0.08	0.183 ± 0.081
UUCAAGCAAUAUUACGCACG	-1.11 ± 0.11	-0.411 ± 0.14
UUCAAGCAAUAUUACGCCCG	-1.16 ± 0.1	-0.594 ± 0.15
UUCAAGCAAUAUUACGCCCU	-1.34 ± 0.14	-0.18 ± 0.16
UUCAAGCAAUAUUACGCCUA	0.0224 ± 0.061	0.182 ± 0.077
UUCAAGCAAUAUUACGCGGU	-2.91 ± 0.17	-1.96 ± 0.17
UUCAAGCAAUAUUACGCUCC	-1.54 ± 0.16	-1.86 ± 0.24
UUCAAGCAAUAUUACGGCAG	-1.05 ± 0.077	-0.45 ± 0.11
UUCAAGCAAUAUUACGGCCG	-0.747 ± 0.14	0.0541 ± 0.16
UUCAAGCAAUAUUACGGCUU	-2.58 ± 0.14	-1.16 ± 0.14
UUCAAGCAAUAUUACGGGAA	-1.32 ± 0.11	-0.286 ± 0.094
UUCAAGCAAUAUUACGGGUC	-4.54 ± 0.32	-1.53 ± 0.14
UUCAAGCAAUAUUACGUCAC	-3.57 ± 0.34	-2.42 ± 0.39

Sequence	self-splicing fitness (ln) (30 °C)	self-splicing fitness (ln) (37 °C)
UUCAAGCAAUAUUACGUCGG	-0.722 ± 0.067	-0.516 ± 0.081
UUCAAGCAAUAUUACGUGAC	-4.47 ± 0.39	-2.69 ± 0.27
UUCAAGCAAUAUUACGUGAG	-0.36 ± 0.071	0.0932 ± 0.088
UUCAAGCAAUAUUACGUGGA	-2.17 ± 0.17	-2.52 ± 0.15
UUCCAGCAAUAUUACGAGAG	-1.82 ± 0.093	-0.571 ± 0.13
UUCCAGCAAUAUUACGAGCG	-1.6 ± 0.096	-1.26 ± 0.1
UUCCAGCAAUAUUACGAGGC	-3.72 ± 0.35	-2.58 ± 0.27
UUCCAGCAAUAUUACGAUCC	-1.46 ± 0.45	–
UUCCAGCAAUAUUACGAUUA	-0.297 ± 0.12	-0.0509 ± 0.1
UUCCAGCAAUAUUACGCAAC	-3.02 ± 0.44	–
UUCCAGCAAUAUUACGCAAU	-2.02 ± 0.17	-1.31 ± 0.14
UUCCAGCAAUAUUACGCGAA	-1.64 ± 0.079	-0.865 ± 0.089
UUCCAGCAAUAUUACGGAUC	-3.83 ± 0.35	-1.75 ± 0.16
UUCCAGCAAUAUUACGGGAA	-2.87 ± 0.35	-2.84 ± 0.34
UUCCAGCAAUAUUACGGGAU	-3.25 ± 0.11	-3.13 ± 0.19
UUCCAGCAAUAUUACGGUAG	-0.0875 ± 0.065	0.438 ± 0.079
UUCCAGCAAUAUUACGGUCU	-2.54 ± 0.33	-2.13 ± 0.3
UUCCAGCAAUAUUACGGUGU	-1.19 ± 0.092	-1.1 ± 0.13
UUCCAGCAAUAUUACGUGAG	0.114 ± 0.062	0.597 ± 0.08
UUCCAGCAAUAUUACGUUAG	-2.57 ± 0.17	-0.904 ± 0.16
UUCGAGCAAUAUUACGAAGC	-2.63 ± 0.33	-1.91 ± 0.36
UUCGAGCAAUAUUACGACAU	-3.097 ± 0.026	-1.94 ± 0.038
UUCGAGCAAUAUUACGACGA	-0.356 ± 0.3	-0.0591 ± 0.21
UUCGAGCAAUAUUACGAGCG	-3.41 ± 0.4	-1.47 ± 0.2

From the supplement of paper PMC7877785
